Consider 1 molecule from PMC3223566, “The Initiation Factor TFE and the Elongation Factor Spt4/5 Compete for the RNAP Clamp during Transcription Initiation and Elongation” (Molecular Cell, 2011).

Assay [1] has as its target T1, M. jannaschii RNA polymerase, wild type, reconstituted from 12 recombinant subunits (M. jannaschii, UniProt Q58443 1-78; Q57840 1-187).
T1 construct: RNA polymerase subunit Rpo1′, M. jannaschii; holds the clamp coiled-coil motif; RNA polymerase subunit Rpo2″, M. jannaschii; RNA polymerase subunit Rpo4 (stalk), M. jannaschii; RNA polymerase subunit Rpo5, M. jannaschii; RNA polymerase subunit Rpo7 (stalk), M. jannaschii; In PIC and TEC experiments the same RNAP stood with DNA, TBP and TFB, or with a DNA/RNA scaffold (see the assay's format); …
Nature of the assay: fluorescence polarisation; fluorescence anisotropy; RNAP added to labeled TFE^44*Cy3B (50 nM); apparent dissociation constant by direct fitting of the titration curves. As to conditions: both partners purified. (In fluorescence polarisation assays a small probe gives low polarisation when free and higher when bound to something large.)

Assay [2] concerns the target T2, RNAPΔRpo4/7, ten-subunit RNAP subassembly lacking Rpo4/7 (M. jannaschii, UniProt Q58443 1-78).
T2 construct: RNA polymerase subunit Rpo1′, M. jannaschii; holds the clamp coiled-coil motif; RNA polymerase subunit Rpo2″, M. jannaschii; RNA polymerase subunit Rpo5, M. jannaschii; As m6 without the chains Rpo4 and Rpo7; source: recombinant subunits, reconstituted in vitro without Rpo4/7; copies: + + + + + + + + +
Described as above. Particulars: both partners purified.

B1: TFE labeled with Cy3B at residue 44 (WH domain) (natural protein)
chain: MLNDPLVQEVLFNIFEGDEKGFEVIDVLLEKGETTEEEIAKELFVKLNVVRKLLYKLYDARLVDYKRWKDEDTNWYSYTWLPTLEKLPYVVKKKINELIKDLEKKLEFEKNNMFFFCPNCNVRFTFEEAMDYGFSCPGCGNMLQEFDNSELIKDLEEQIKFLKEELKNNPFLK
modifications: p-azido phenylalanine (APA) at position 44, derivatized with Cy3B
Consider B1, for which the values for the Kd in assay [1] and in assay [2] were 200 ± 10 nM and 1700 ± 150 nM, respectively.
